Source: the supplement of paper PMC10567573

B1: LYSMD4 (parent)
chain: LLQRELAQEDSLNKLALQYGCKVA
B2: FAM50A (parent)
chain: HIFPASRWEPYDPEKKWDKYTIR

Variants of: B1
Test: protein stability index of a GFP-peptide fusion (GPS, HEK-293T) (PSI 1-6); higher = more stable
Settings: c terminus: a fixed tail appended
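Also: lentivirally expressed fusions sorted by FACS into six bins by GFP to DsRed ratio, PSI derived from sequencing read proportions per bin multiplied by bin number.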

Protein stability index, by site and new letter:
G20: D 2.94; C 1.65; H 3.73; I 2.42; N 2.37; K 1.62
Y19: T 3.17; V 2.02; P 3.28; D 4.57; Q 3.78; I 1.59; R 1.85; K 2.11
A24: D 2.37; H 1.03; V 3.02
L2: A 2.26; Q 1.86; D 2.63; M 2.27; N 2.04; S 2.06
E5: D 1.44; R 2.05
D10: I 1.04; T 1.92; E 1.83; K 1.86; G 1.9; L 2.1
K14: D 2.23; W 3.01
V23: T 2.58; K 2.92; R 2.47; N 3.62
A16: T 1.78; Q 1.86; I 2.66
A7: H 2.72; D 2.09; P 1.97; Q 2.02
L6: Q 2.18; R 1.61; Y 1.92; W 1.87; S 1.67
E9: W 1.02; M 1.85; C 1.53; N 2.4; P 1.63
L12: Y 2.38; W 1.23; M 1.97; K 2.02; V 2.31
S11: P 1.48
L17: P 2.98; G 2.98; I 1.45; Q 2.12; K 2.5; F 3.31; W 2.65
R4: P 2.06; G 1.24; Y 3.28; T 1.9; V 3.51; N 2.04; H 1.56
K22: E 3.75; Y 1.35; I 1.78; P 3.45; A 2.7; G 2.93
C21: T 3.03; M 1.47; L 1.95; E 3.43; G 2.66
L15: H 2.67; N 3.75; F 1.07; I 2.11; Q 3.65; P 3.97
N13: T 1.3; C 2.49; F 1.65; P 1.95
Q18: W 2.51; A 1.65; I 2.4; Y 2.22; M 1.72
Q8: K 1.66; M 1.92; L 1.58; A 1.73; T 1.45; P 1.48; S 2.25; G 1.42
L1: P 1.51; N 2.09; I 2.28; K 1.99; T 1.8; Q 1.32; R 1.6; F 1.55; H 1.91

Variants of: B2
Test: as above
Settings: c terminus: native

Protein stability index of substitutions, site by site:
P4: C 1.69; N 2.71; V 1.79; L 2.56; R 2.13; E 2.45; S 1.97
I22: L 2.25; R 1.59; E 2.25; C 2.15; S 2.72; H 2.19; N 3.07; W 2.06; Y 2.98; G 2.29; F 2.92; Q 2.91
Y20: S 2.74; C 1.77; F 2.67; A 1.86; W 2.96; Q 2.48; L 2.26
S6: I 2.63; A 2.66; M 2.48; V 1.95; L 1.84
K16: D 1.78; H 1.72; A 1.76; S 2.6; F 3.28; Q 2.79; M 1.71; I 1.54
H1: E 2.52; Q 2.5; N 2.77; P 2.83; I 1.58; G 3.23; C 2.4
R23: P 3.67; G 2.59; A 3.17; Q 2.12; E 2.04; W 1.72; H 2.2; L 2.54; Y 2.1; D 2.58; C 2.08
D18: H 2.58; P 2.99; Y 2.39; Q 2; V 2.17; I 2.48; E 3.2; S 1.45; R 2.01
P10: K 2.24; L 1.8; H 2.88; D 2.23; W 1.58; R 2.7; I 1.24; T 2.3; M 1.82; N 2.02; A 1.71; E 2.32; V 1.94
K15: I 1.9; P 1.99; C 3.43; A 2.23; V 2.1; T 2.33; E 1.66; G 2.27; Q 2.13; D 2.05; M 2.16; W 3
A5: I 2.18; S 3.2; T 2.06; R 1.9; L 1.58; F 2.24; K 2.31; Q 3.48
Y11: I 2.51; R 4.26; D 2.74; L 2.27; F 2.18; Q 2.28; V 2.67; T 2.42; C 2.48; S 2.83
F3: D 3.92; P 2.62; G 4.42; T 3; K 2.47; H 1.96
E14: T 1.96; C 2; H 1.76; D 2.02; Y 2.68; S 2.65; M 2.38; R 2.49; K 2.27; G 2.5; V 1.59; F 1.55; P 2.2
E9: N 2.05; I 3.95; A 2.24; V 2.17; Y 1.51; K 1.68; T 1.87; Q 2.2; P 2.57; L 2.42; M 1.77
K19: P 2.3; T 3.02; Y 1.35; A 2.18; F 2.25; N 2.52; C 1.81; M 1.9; S 1.89; I 2.22; D 2.24; G 2.84
W17: V 2.62; T 2.25; I 2.64; E 3.48; Y 2.29; K 2.57; M 2.61; G 2.43; P 2.56; A 2.45; R 2.68
R7: A 2.34; K 2.1; V 2.48; G 2.5; S 3.31; D 3.29; Q 2.47; Y 1.65; C 1.85; H 2; P 2.01; I 1.48; W 1.22; M 2.6
T21: W 2.86; A 2.08; H 2.2; N 2.54; E 2.7; R 2.38; V 2.55; M 2.08; L 2.32
I2: S 2.83; D 2.28; N 3.19; Q 3.11; E 2.95; M 2.35; A 2.71
W8: I 3.38; F 2.17; V 3.62; E 3.6; G 3.72; T 4.03; H 3.46; K 2.96; M 3.42
P13: Q 1.74; H 2.19; M 2.53; I 3.04; G 2.03; A 2.44; W 1.25; D 1.75; N 2.05; S 2.1; C 1.48
D12: C 1.89; Y 1.75; G 2.16; V 3.47; A 2.5
